Where “and” joins values, the source holds several entries; their conditions need not be identical. Equal entries are not always repeated.
Legend:
[1] = tested on: C=C(C)CCO[P@@](=O)(O)OP(=O)(O)O; assay: purified protein, by the assay type; conditions: 70.0 °C; for kcat: other: IPP and DMAPP as co-substrates, MgCl2 cofactor; for Km: other: apparent, at saturating concentrations of DMAPP (350 mM [sic]), means ± SD of three determinations
Description: (§1) The assay procedures and methods for product analysis were similar to those previously described (C. Burke and R. Croteau, J. Biol. Chem. 277:3141-3149, 2002), except that for radio-GC a Raga (Raytest) radio-detector connected in-line to a Series 600 (Gow-Mac) chromatograph was employed with a 5% phenyl polysiloxane (ZB-5; Phenomenex) capillary column under hydrogen gas flow (70° C. for 5 min. followed by an 8° C. per min. ramp to 240° C. for 5 min).
(§2) Molecular weight determination and kinetic evaluation. […] For kinetic evaluation, the standard prenyltransferase assay was performed (C. Burke and R. Croteau, J. Biol. Chem. 277:3141-3149, 2002) but the reaction was terminated after 4 min. to ensure linearity in the rate measurements.
(§3) Kinetic characterization of the GPP synthases (SEQ ID NOS:12, 16, and 20).

[2] = tested on: CC(C)=CCOP(=O)(O)OP(=O)(O)O; assay: purified protein, by the assay type; conditions: other: apparent; at saturating concentrations of IPP (212 mM [sic]); means ± SD of three determinations; 70.0 °C
Description: as §1, §2, §3

| Substance | kcat [1] | Km [1] [µM] | Km [2] [µM] |
| --- | --- | --- | --- |
| Grand fir (Abies grandis) geranyl diphosphate synthase AgGPPS1, N-terminally truncated (E88M), C-terminal His6 tag, SEQ ID NO: 16 (Abies grandis; E88M) | 1.6 s⁻¹ | 44 ± 5 | 163 ± 13 |
| Grand fir (Abies grandis) geranyl diphosphate synthase AgGPPS2, N-terminally truncated (E86M), C-terminal His6 tag, SEQ ID NO: 12 (Abies grandis; E86M) | 1.8 s⁻¹ | 55 ± 4 | 90 ± 1 |
| Grand fir (Abies grandis) geranyl diphosphate synthase AgGPPS3, N-terminally truncated (E92M), C-terminal His6 tag, SEQ ID NO: 20 (Abies grandis; E92M) | 0.47 s⁻¹ and 0.5 ± 0.1 s⁻¹ | 44 ± 7 | 82 ± 5 |
